Our source for the self-cleavage values is the RNAGym collection of RNA variant scans (doi:10.7554/elife.90254).

Sequences and labels used below:
B1: LINE1-full (parent)
chain: UACGUAGGUGGUUUUCCCCUGAUAGUGCUAAGGGGGCCUGGAAGUUUGGACUGGGCAGAGCUCAACACAGCGUGGCAAAGUGGCUGUGGCUAGACUGCCUCUCUGGAUUCCUCGUCACUCAGCAGGGCAUCUCUGAGAGAAAUGCC

Variants of B1 are the subject of the data set. Description: self-cleavage, relative activity (ratio to wild type); higher = more cleavage; in vitro, sequencing; the parent is a self-cleaving ribozyme.
Turning to G40U U102C, the self-cleavage stood at 1.
Take G40A G82A: the self-cleavage amounted to 1.73.
Take C38U A117G: the self-cleavage came to 2.38.
As for U39A A43U, the self-cleavage stood at 1.39.
For the variant U39C A69G, the self-cleavage stood at 0.39.
To G40A G74U belongs 1.45.
As for C37G U62C, the self-cleavage stood at 0.12.
As for C38A A140G, the figure is 1.28; as for C37U G88A, 0.04; as for C37A U130C, 1.39.
For the variant C37G U96G, the self-cleavage was 0.07.
Regarding C37U A136U, the self-cleavage is 1.49.
With C37G U102C, the self-cleavage came to 1.19.
For the variant C37G U102A, the self-cleavage came out at 0.9.
Consider U39A G114U, for which the self-cleavage was 1.15.
As for U39A G114A, the figure is 1.19.
As to C37G G60A, the self-cleavage was 0.06.
In the case of G36U U45C, the self-cleavage worked out at 1.13.
As to G40A U130A, the self-cleavage worked out at 1.36.
Take G40A U130G: the self-cleavage turned out to be 1.19.
Consider C37A C95A, for which the self-cleavage was found to be 0.01.
As to C37U U85C, the self-cleavage is 0.19.
G40C A42G: the self-cleavage was 1.09.
With G40U A78G, the self-cleavage worked out at 0.81.
Take U39C C63U: the self-cleavage turned out to be 0.25.
In the case of U39C C63A, the self-cleavage came out at 0.05.
As to C37U A43G, the self-cleavage was determined as 1.32.
As for G40C A140G, the figure is 1.23.
As to U39G C123U, the self-cleavage was determined as 0.
On to C37U A140G, for which the self-cleavage was found to be 0.26.
Regarding C37U A140U, the self-cleavage was found to be 1.14.
As for U39C A142G, the self-cleavage was determined as 1.18.
Regarding U39C U109C, the self-cleavage worked out at 1.49.
Turning to U39C U109G, the self-cleavage turned out to be 0.74.
As to C38U U46A, the self-cleavage was determined as 1.28.
To U39A U91C belongs 0.43.
In the case of G40A U115A, the self-cleavage was 1.17.
For the variant G40A U115C, the self-cleavage came to 1.18.
With U39C A92G, the self-cleavage came out at 0.09.
With U39C A92U, the self-cleavage was found to be 0.58.
As for U39C G75A, the figure is 0.83; as for C38A U104C, 0.82; as for U39G U143C, 1.81.
Take G41A A59G: the self-cleavage was 0.07.
To G40A U85A belongs 0.02.
In the case of G40A U85C, the self-cleavage came out at 0.04.
C37A A94U: the self-cleavage is 0.23.
C37A A94C: the self-cleavage stood at 0.06.
For the variant U39G U52C, the self-cleavage turned out to be 0.
To U39C U87C belongs 0.17.
To G41A A121G belongs 1.15.
As for G40C U45C, the self-cleavage turned out to be 0.75.
As for G40A G139A, the self-cleavage came to 0.58.
Turning to C37A C90U, the self-cleavage is 0.04.
G36U U73A: the self-cleavage came out at 0.46.
In the case of C38A U132C, the self-cleavage is 1.02.
Regarding G40A A42G, the self-cleavage is 1.07.
To G41A A141G belongs 0.96; to G41A, 1.16.
Take G40A U112C: the self-cleavage turned out to be 0.89.
Consider U39A A124G, for which the self-cleavage turned out to be 0.97.
For the variant C37U A79C, the self-cleavage was found to be 1.22.
In the case of U39G G74A, the self-cleavage is 0.97.
For the variant U39A A69G, the self-cleavage amounted to 0.55.
Consider U39A A69U, for which the self-cleavage was 0.04.
In the case of G40U A50G, the self-cleavage worked out at 0.
Regarding C38G U73A, the self-cleavage was 1.76.
As for U39C A94G, the figure is 0.11; as for G36U U134C, 1.99.
As for U39A C120U, the figure is 1.56.
To U39A A140U belongs 1.23.
Take U39C C99U: the self-cleavage is 0.5.
With C37A A64U, the self-cleavage was determined as 0.35.
To G36U U108C belongs 1.62.
For C38G A138U, the self-cleavage is 1.31.
Turning to U39A G105U, the self-cleavage came out at 1.23.
As for U39C C145U, the figure is 0.99; as for C38A A121U, 1.42; as for U39C U91A, 0.39.
In the case of G40A A94U, the self-cleavage was determined as 0.26.
As to U39C A141G, the self-cleavage is 1.11.
In the case of U39G U132C, the self-cleavage was 2.44.
Take U39C U46G: the self-cleavage stood at 1.75.
With U39C U85G, the self-cleavage was found to be 0.04.
In the case of G40A C145U, the self-cleavage is 0.64.
Take C37A A142G: the self-cleavage came out at 1.24.
As to U39C G126A, the self-cleavage is 1.18.
As for C38G U52A, the figure is 1.04.
For U39C C71A, the self-cleavage came to 0.09.
Take U39A C103U: the self-cleavage was determined as 1.74.
For C38A U109C, the self-cleavage turned out to be 1.
As for U39G C103A, the figure is 1.85; as for C37A A129G, 1.22; as for U39G A65G, 0.15.
In the case of G40A A140G, the self-cleavage is 1.12.
With C37G A59G, the self-cleavage worked out at 0.07.
In the case of C37G A59U, the self-cleavage came to 0.84.
To C37A U100C belongs 1.56; to C37A U100A, 0.93; to U39C U132A, 1.46.
With U39C U132C, the self-cleavage was determined as 1.32.
Take U39C A121G: the self-cleavage amounted to 1.67.
As for U39C A121C, the figure is 1.37.
Regarding U39C A121U, the self-cleavage was determined as 1.04.
As for U39C A65G, the figure is 0.09; as for U39A G60A, 0.05; as for U39A U100C, 1.67.
As for G40A G106A, the self-cleavage is 1.23.
For the variant G41A A142G, the self-cleavage worked out at 1.18.
To G40A A124G belongs 0.52.
U39G U112A: the self-cleavage was 1.65.
As to U39C A140U, the self-cleavage is 1.22.
As for U39C A140G, the figure is 1.3; as for C38A U52C, 0.99; as for U39C A42U, 0.73.
In the case of G41A A65G, the self-cleavage amounted to 0.03.
With U39G G135A, the self-cleavage is 1.86.
As to U39C G114A, the self-cleavage was found to be 1.04.
As for U39C C90U, the self-cleavage is 0.07.
Turning to U39C C90G, the self-cleavage was determined as 0.03.
In the case of C37G U143C, the self-cleavage was 1.38.
As for U39C G139U, the self-cleavage stood at 0.42.
In the case of U39C G139A, the self-cleavage was found to be 0.58.
Regarding U39C G72A, the self-cleavage was found to be 1.07.
Regarding U39A G122A, the self-cleavage worked out at 0.54.
For the variant U39G U47C, the self-cleavage was found to be 0.52.
As for C37G U52C, the figure is 0.75.
As to C38U U62C, the self-cleavage came out at 0.
Turning to C38U U62A, the self-cleavage turned out to be 0.02.
Take G40A A136G: the self-cleavage was 0.85.
Consider U39C A77U, for which the self-cleavage stood at 0.96.
Consider U39A U102A, for which the self-cleavage turned out to be 1.62.
On to U39C U45G, for which the self-cleavage was found to be 1.17.
For the variant U39C U45A, the self-cleavage was 0.87.
For the variant U39C U47A, the self-cleavage came out at 1.15.
Consider U39A U130A, for which the self-cleavage is 1.38.
As for C37G U47A, the self-cleavage is 1.11.
As for C37G U47C, the figure is 0.71.
In the case of G40U A124G, the self-cleavage is 0.87.
As for C37G U119C, the figure is 1.46; as for C38U U130C, 1.46; as for C38A U115C, 1.14.
As for C38A A136G, the figure is 0.7.
Turning to U39C U108C, the self-cleavage came out at 1.92.
In the case of U39G, the self-cleavage amounted to 1.46.
Consider U39A, for which the self-cleavage turned out to be 1.34.
Consider U39C, for which the self-cleavage was found to be 1.14.
As for U39C G122C, the figure is 0.96.
In the case of C38U U115A, the self-cleavage is 1.46.
As for C38U U115C, the figure is 1.6; as for G41A A94G, 0.13.
To U39C A59G belongs 0.04; to U39C A59U, 0.61; to U39C G105U, 0.85.
Consider U39A U46C, for which the self-cleavage stood at 1.5.
On to C37U C113U, for which the self-cleavage was 0.42.
Consider U39C A117G, for which the self-cleavage was 1.37.
On to U39C A117U, for which the self-cleavage was determined as 1.49.
As for C37U U52C, the figure is 1.13; as for C37U U52G, 0.88.
As to U39C U96C, the self-cleavage was found to be 0.05.
For U39C U96A, the self-cleavage was 0.08.
Regarding C37U A67U, the self-cleavage worked out at 0.08.
On to U39C A129G, for which the self-cleavage is 1.61.
As for U39C A129U, the self-cleavage was 1.05.
For the variant U39C A78U, the self-cleavage is 1.42.
As for C37G A138G, the figure is 0.8.
